The values below come from paper PMC2885933 (The EMBO Journal, 2010).

The target of the test is T1, ORF57-6xHis (Kaposi's sarcoma-associated herpesvirus …, UniProt Q2HR75 1-455).
T1 sequence: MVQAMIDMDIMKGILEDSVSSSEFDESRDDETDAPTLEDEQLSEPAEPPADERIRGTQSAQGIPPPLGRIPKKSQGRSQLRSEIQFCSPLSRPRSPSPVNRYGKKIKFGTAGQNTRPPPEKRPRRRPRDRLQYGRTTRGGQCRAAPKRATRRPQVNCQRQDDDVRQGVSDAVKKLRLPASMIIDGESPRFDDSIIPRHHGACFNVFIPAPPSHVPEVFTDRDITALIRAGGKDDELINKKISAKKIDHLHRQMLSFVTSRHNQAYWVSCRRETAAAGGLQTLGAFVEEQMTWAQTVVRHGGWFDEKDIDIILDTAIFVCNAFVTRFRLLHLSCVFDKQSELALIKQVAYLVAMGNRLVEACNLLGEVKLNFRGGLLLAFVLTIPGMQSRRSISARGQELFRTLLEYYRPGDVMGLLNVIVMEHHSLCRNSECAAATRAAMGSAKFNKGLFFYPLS
The experiment in a line: pull-down.

B1: GST-PYM (natural protein)
chain: not shown
Regarding B1, the binding result was “binds”.
